What was measured:
[1] = target: T1, C-terminal biotinylated human PAR-2 peptide SEQ ID NO:881 (Gly-44 to Ala) (human, not fully specified; C-terminal biotin (K-B)); assay: alanine scan by biolayer interferometry (Octet Red): C-terminal biotin peptide on streptavidin tips, 200 nM antibody; T1/2 relative to wild-type peptide SEQ ID NO:871
T1 construct: alanine-scan mutant
T1 peptide: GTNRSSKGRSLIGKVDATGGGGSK
Description: (§1) In order to more particularly identify the amino acids of PAR-2 with which the PAR-2 antibodies interact, an alanine scanning study was carried out using peptides comprising the activating PAR-2 protease cleavage site.
(§2) The ability of each peptide mutant to bind to PAR-2 antibodies was measured using biolayer interferometry (Octet Red; ForteBio). Each peptide (2.5 μg/ml) was captured on streptavidin coated biosensor tips (Octet SA sensor) for 10 seconds. To measure binding and dissociation between each peptide and PAR-2 antibody, the peptide-coated biosensors were contacted with 200 nM solutions of PAR-2 antibodies for 5 minutes (binding) followed by transfer to buffer with no antibody for 10 min (dissociation). […] The results are expressed as percent binding and percent T_{1/2} relative to WT peptide (Tables 24-28).

[2] = target: T2, C-terminal biotinylated human PAR-2 peptide SEQ ID NO:879 (Val-42 to Ala) (human, not fully specified; C-terminal biotin (K-B)); assay: BLI Exp1
T2 construct: alanine-scan mutant
T2 peptide: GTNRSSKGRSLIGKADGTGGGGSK
Description: as §1, §2

[3] = target: T3, C-terminal biotinylated human PAR-2 peptide SEQ ID NO:875 (Leu-38 to Ala) (human, not fully specified; C-terminal biotin (K-B)); assay: BLI Exp1
T3 construct: alanine-scan mutant
T3 peptide: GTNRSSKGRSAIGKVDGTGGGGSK
Description: as §1, §2

[4] = target: T4, C-terminal biotinylated human PAR-2 peptide SEQ ID NO:871 (wild-type) (human, not fully specified; C-terminal biotin (K-B)); assay: BLI Exp1
T4 construct: also called WT peptide
T4 peptide: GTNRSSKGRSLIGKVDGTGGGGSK
Description: as §1, §2

[5] = target: T5, C-terminal biotinylated human PAR-2 peptide SEQ ID NO:878 (Lys-41 to Ala) (human, not fully specified; C-terminal biotin (K-B)); assay: BLI Exp1
T5 construct: alanine-scan mutant
T5 peptide: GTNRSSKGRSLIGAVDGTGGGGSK
Description: as §1, §2

[6] = target: T6, C-terminal biotinylated human PAR-2 peptide SEQ ID NO:880 (Asp-43 to Ala) (human, not fully specified; C-terminal biotin (K-B)); assay: BLI Exp1
T6 construct: alanine-scan mutant
T6 peptide: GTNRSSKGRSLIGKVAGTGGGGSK
Description: as §1, §2

[7] = target: T7, C-terminal biotinylated human PAR-2 peptide SEQ ID NO:876 (Ile-39 to Ala) (human, not fully specified; C-terminal biotin (K-B)); assay: BLI Exp1
T7 construct: alanine-scan mutant
T7 peptide: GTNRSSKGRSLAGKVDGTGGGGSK
Description: as §1, §2

[8] = target: T8, C-terminal biotinylated human PAR-2 peptide SEQ ID NO:877 (Gly-40 to Ala) (human, not fully specified; C-terminal biotin (K-B)); assay: BLI Exp1
T8 construct: alanine-scan mutant
T8 peptide: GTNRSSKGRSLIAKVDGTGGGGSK
Description: as §1, §2

[9] = target: T1, C-terminal biotinylated human PAR-2 …; assay: BLI Exp1
Description: as §1, §2

[10] = target: T9, C-terminal biotinylated human PAR-2 peptide SEQ ID NO:873 (Arg-36 to Ala) (human, not fully specified; C-terminal biotin (K-B)); assay: BLI Exp1
T9 construct: alanine-scan mutant
T9 peptide: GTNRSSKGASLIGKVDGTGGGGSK
Description: as §1, §2

[11] = target: T10, C-terminal biotinylated human PAR-2 peptide SEQ ID NO:874 (Ser-37 to Ala) (human, not fully specified; C-terminal biotin (K-B)); assay: BLI Exp1
T10 construct: alanine-scan mutant
T10 peptide: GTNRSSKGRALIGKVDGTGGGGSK
Description: as §1, §2

[12] = target: T11, C-terminal biotinylated human PAR-2 peptide SEQ ID NO:872 (Gly-35 to Ala) (human, not fully specified; C-terminal biotin (K-B)); assay: BLI Exp1
T11 construct: alanine-scan mutant
T11 peptide: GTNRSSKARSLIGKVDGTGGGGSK
Description: as §1, §2

[13] = target: T12, C-terminal biotinylated human PAR-2 peptide SEQ ID NO:882 (Thr-45 to Ala) (human, not fully specified; C-terminal biotin (K-B)); assay: BLI Exp1
T12 construct: alanine-scan mutant
T12 peptide: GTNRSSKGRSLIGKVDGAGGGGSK
Description: as §1, §2

B1: H4H588N (antibody, human IgG4, V domains shown)
VH: EVQLLESGGGLVQPGGSLRLSCAASGFTFSSYAMTWVRQAPGKGLYWVSAISGGRGSAYYADSVKGRFTISRDNSKNTLYLQMNSLRAEDTAVYYCAKEGDSGYDLAYWGRGTLVTVSS
VL: DIQMTQSPSSLSASVGDRVTITCRARQGISNNLAWLQQKPGKAPKSLIYAASSLQSGIPSKFSGSGSGTYFTLTISSLQPEDFATYYCQQYKSSPLTFGGGTKVEIK
notes: also called H2M588N variable regions
[1]
  percent of T1/2 relative to wild-type peptide (average of duplicate experiments): 1%
[2]
  % Rel Binding: 74%
  % Rel T1/2: 1%
[3]
  % Rel Binding: 127%
  % Rel T1/2: 100%
[4]
  % Rel Binding: 100%
  % Rel T1/2: 100%
[5]
  % Rel Binding: 217%
  % Rel T1/2: 108%
[6]
  % Rel Binding: 35%
  % Rel T1/2: 4%
[7]
  % Rel Binding: 92%
  % Rel T1/2: 36%
[8]
  % Rel Binding: 30%
  % Rel T1/2: 1%
[9]
  % Rel Binding: 81%
  % Rel T1/2: 1%
[10]
  % Rel Binding: 208%
  % Rel T1/2: 100%
[11]
  % Rel Binding: 119%
  % Rel T1/2: 100%
[12]
  % Rel Binding: 122%
  % Rel T1/2: 100%
[13]
  % Rel Binding: 125%
  % Rel T1/2: 94%

B2: H4H581P (antibody, human IgG4, V domains shown)
VH: QVQLVESGGGVVQPGRSLRLSCVASGFTFSRYGIHWVRQAPGKGLEWVIVISYDGINKYYADSVKGRFTISRDNSKNTVYLQMNSLRAEDTAVYYCAKGDFWSGYFDYWGQGTLVTVSS
VL: DIVMTQTPLSSPVTLGQPASISCRSSQSLVHSDGNTYLSWLHQRPGQPPRLLIYKISNRFSGVPDRFSGSGAGTDFTLQISRVEAEDVGIYYCMQATQFPTFGGGTKVEIK
notes: also called mAb H4H581P; H1H581P variable regions
[1]
  percent of T1/2 relative to wild-type peptide (average of duplicate experiments): 121%
[2]
  % Rel Binding: 36%
  % Rel T1/2: 1%
[3]
  % Rel Binding: 9%
  % Rel T1/2: 0.4%
[4]
  % Rel Binding: 100%
  % Rel T1/2: 100%
[5]
  % Rel Binding: 113%
  % Rel T1/2: 63%
[6]
  % Rel Binding: 18%
  % Rel T1/2: 36%
[7]
  % Rel Binding: 8%
  % Rel T1/2: 0.2%
[8]
  % Rel Binding: 101%
  % Rel T1/2: 33%
[9]
  % Rel Binding: 67%
  % Rel T1/2: 117%
[10]
  % Rel Binding: 87%
  % Rel T1/2: 122%
[11]
  % Rel Binding: 45%
  % Rel T1/2: 7%
[12]
  % Rel Binding: 78%
  % Rel T1/2: 118%
[13]
  % Rel Binding: 65%
  % Rel T1/2: 129%

— patent US20110059095A1 (Regeneron, published 2011)
